According to publication PMC3905715 (Nature Communications, 2013):

B1: mouse Rspo2 Fu1–Fu2 (mRspo2Fu1–Fu2, N37 or I39-G144), His10 [mouse] / mouse ZNRF3 ectodomain (K53-L205), biotinylated, immobilised for SPR [modified: biotin at the C-terminal BirA recognition sequence; biotin at the C-terminal BirA … (parent complex)
chain 1: ICKGCLSCSKDNGCSRCQQKLFFFLRREGMRQYGECLHSCPSGYYGHRAPDMNRCARCRIENCDSCFSKDFCTKCKVGFYLHRGRCFDECPDGFAPLDETMECVEG
chain 2: KETAFVEVVLFESSPSGDYTTHTTGLTGRFSRAGAMLSAEGEIVQMHPLGLCNNNDEEDLYEYGWVGVVKLEQPELDPKPCLTVLGKAKRAVQRGATAVIFDVSENPEAIDQLNQGSEDPLKRPVVYVKGADAIKLMNIVNKQKVARARIQHL

Variants of: B1
Experiment: SPR

Kd | Variant
1500 nM | chain 2 M46T
5600 nM | chain 2 Q45E

Variants of: B1
Experiment: SPR
Remark: another data set of the same source

Kd | Variant
680 nM | chain 2 E57K
